Results published in patent US20100120118A1.

System: purified MrpC

With “N-terminal histidine-tagged MazF-mx (H-MazF)” the “gel-shift assay of MrpC on the mazF-mx promoter (PmazF) after preincubation with H-MazF” value was “Binding of MrpC to the promoter region was found to be inhibited when MrpC was preincubated with MazF-mx”.
